T1: mouse vitronectin (ab92727, Abcam) (mouse, UniProt P29788 20-478)
T1 sequence (looked up): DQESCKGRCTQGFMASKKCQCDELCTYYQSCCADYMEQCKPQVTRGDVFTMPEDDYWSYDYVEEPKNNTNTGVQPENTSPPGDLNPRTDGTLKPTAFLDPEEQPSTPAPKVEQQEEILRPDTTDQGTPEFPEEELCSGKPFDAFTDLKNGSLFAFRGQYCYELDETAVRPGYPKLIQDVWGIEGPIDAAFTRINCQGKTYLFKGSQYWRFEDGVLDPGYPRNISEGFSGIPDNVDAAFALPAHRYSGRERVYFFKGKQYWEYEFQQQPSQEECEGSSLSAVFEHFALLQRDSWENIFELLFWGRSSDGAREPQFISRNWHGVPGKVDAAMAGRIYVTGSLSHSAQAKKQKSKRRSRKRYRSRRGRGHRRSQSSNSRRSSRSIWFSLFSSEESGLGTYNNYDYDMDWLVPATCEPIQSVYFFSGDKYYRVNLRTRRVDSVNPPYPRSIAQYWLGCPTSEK


Columns and labels:
[1] = target: T1, mouse vitronectin (ab92727, Abcam); experiment: BLI
[2] = target: human vitronectin (2349-VN, R&D Systems) (human, UniProt P04004 20-478); experiment: BLI
human vitronectin (2349-VN, R&D Systems), sequence (P04004 20-478): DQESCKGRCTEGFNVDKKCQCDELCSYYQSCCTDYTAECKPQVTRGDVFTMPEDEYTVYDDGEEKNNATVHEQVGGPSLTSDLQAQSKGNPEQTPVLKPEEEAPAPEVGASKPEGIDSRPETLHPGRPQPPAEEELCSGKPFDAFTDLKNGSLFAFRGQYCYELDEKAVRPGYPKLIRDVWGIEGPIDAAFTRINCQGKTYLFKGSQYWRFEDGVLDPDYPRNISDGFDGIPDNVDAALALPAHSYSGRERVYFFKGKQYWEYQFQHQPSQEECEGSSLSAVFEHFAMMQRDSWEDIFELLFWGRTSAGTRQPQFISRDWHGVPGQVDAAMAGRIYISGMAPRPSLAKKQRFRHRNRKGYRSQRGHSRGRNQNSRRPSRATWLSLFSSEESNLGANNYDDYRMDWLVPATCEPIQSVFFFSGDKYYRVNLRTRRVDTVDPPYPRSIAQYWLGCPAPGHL

Binder	Kd [1] [nM]	Kd [2] [nM]
His-tagged mouse testican-2 (MBS1458329, MyBioSource) (natural protein, UniProt Q9ER58 23-423, looked up) EGDAKGLKEGETPGNFMEDEQWLSSISQYSGKIKHWNRFRDEVEDDYIKSWEDNQQGDEALDTTKDPCQKVKCSRHKVCVAQGYQRAMCISRKKLEHRIKQPSLKLHGGKDSVCKPCHMAQLASVCGSDGHTYSSVCKLEQQACLSSKQLAVRCEGPCPCPTEQSTASTTDSKSETCTGQDLADLGDRLRDWFQLLRENSKQNGSANSATNPAGLDKSLGASCKDSIGWMFSKLDTSGDLFLDQTELAAINLDKYEVCIRPFFNSCDTYKDGRVSTAEWCFCFWREKPPCLAELERTQIQEAAKKKPGVFIPSCDEDGYYRKMQCDQSRGDCWCVDQLGLELTGTRMHGTPDCDDIVGFSGDFGSGVGWEDEEEKETEEAGEEAEEEEGEAGEADDGGYIW	63.7 ± 2.3	–
His-tagged human testican-2 (2328-PI, R&D Systems) (natural protein, UniProt Q92563 23-424, looked up) EGDAKGLKEGETPGNFMEDEQWLSSISQYSGKIKHWNRFRDEVEDDYIKSWEDNQQGDEALDTTKDPCQKVKCSRHKVCIAQGYQRAMCISRKKLEHRIKQPTVKLHGNKDSICKPCHMAQLASVCGSDGHTYSSVCKLEQQACLSSKQLAVRCEGPCPCPTEQAATSTADGKPETCTGQDLADLGDRLRDWFQLLHENSKQNGSASSVAGPASGLDKSLGASCKDSIGWMFSKLDTSADLFLDQTELAAINLDKYEVCIRPFFNSCDTYKDGRVSTAEWCFCFWREKPPCLAELERIQIQEAAKKKPGIFIPSCDEDGYYRKMQCDQSSGDCWCVDQLGLELTGTRTHGSPDCDDIVGFSGDFGSGVGWEDEEEKETEEAGEEAEEEEGEAGEADDGGYIW	–	37.4 ± 0.6
deglycosylated human testican-2 (natural protein, UniProt Q92563 23-424, looked up, deglycosylated (Protein Deglycosylation Mix II kit)) EGDAKGLKEGETPGNFMEDEQWLSSISQYSGKIKHWNRFRDEVEDDYIKSWEDNQQGDEALDTTKDPCQKVKCSRHKVCIAQGYQRAMCISRKKLEHRIKQPTVKLHGNKDSICKPCHMAQLASVCGSDGHTYSSVCKLEQQACLSSKQLAVRCEGPCPCPTEQAATSTADGKPETCTGQDLADLGDRLRDWFQLLHENSKQNGSASSVAGPASGLDKSLGASCKDSIGWMFSKLDTSADLFLDQTELAAINLDKYEVCIRPFFNSCDTYKDGRVSTAEWCFCFWREKPPCLAELERIQIQEAAKKKPGIFIPSCDEDGYYRKMQCDQSSGDCWCVDQLGLELTGTRTHGSPDCDDIVGFSGDFGSGVGWEDEEEKETEEAGEEAEEEEGEAGEADDGGYIW	–	348 ± 12.4
